Reference: patent US20220003777A1

Target: C1 esterase inhibitor, human plasma-derived (human) (UniProt P05155)
Assay: Western blot of serially diluted C11NH/BSA probed with 20 µg/mL StcE E447D

Chain of C1 esterase inhibitor, human plasma-derived (human) (P05155 23-500 limits assumed): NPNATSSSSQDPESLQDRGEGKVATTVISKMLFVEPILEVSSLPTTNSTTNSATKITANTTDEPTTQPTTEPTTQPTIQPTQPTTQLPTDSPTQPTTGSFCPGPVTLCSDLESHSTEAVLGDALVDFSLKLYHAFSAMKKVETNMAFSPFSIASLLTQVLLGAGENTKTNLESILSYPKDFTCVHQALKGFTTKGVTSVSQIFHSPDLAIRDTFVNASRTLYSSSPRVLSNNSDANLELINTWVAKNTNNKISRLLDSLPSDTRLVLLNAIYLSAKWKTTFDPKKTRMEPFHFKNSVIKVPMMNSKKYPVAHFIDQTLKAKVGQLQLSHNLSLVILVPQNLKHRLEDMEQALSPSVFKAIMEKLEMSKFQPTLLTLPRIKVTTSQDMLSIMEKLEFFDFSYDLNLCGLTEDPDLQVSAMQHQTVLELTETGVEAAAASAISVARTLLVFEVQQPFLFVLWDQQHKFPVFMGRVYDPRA

“StcE E447D, catalytically inactive point mutant of StcE, N-terminal His-tagged (from UniProt O82882 36-898) (enzyme; other documents disagree on this pair)” was tested, and the lowest amount of C11NH with visible signal was 0.03 µg.
